In patent publication US20230391828A1, “REGULATORS OF CELL DIVISION” (TECHNISCHE UNIVERSITÄT DRESDEN, priority 2020, published 2023) one finds IC50, in vitro APC/C ubiquitination assay (UBE2C, securin, methylated ubiquitin, 0.01-100 µM G3-6, 10 min) and Ki data, which are given here for one molecule.

Bridge positions count the residues as written; N and C are the ends. Square brackets hold non-standard residues; d marks the D form. R8 = C=CCCCCCC[C@@](C)(N)C(=O)O; S5 = C=CCCC[C@](C)(N)C(=O)O

In test [1] the target is recombinant human APC/C (Strep-tagged APC4), expressed in SF9 cells (human) (UniProt Q9NYG5). Nature of the test: cell-based or functional assay.
Sequence of recombinant human APC/C (Strep-tagged APC4), expressed in SF9 cells (human) (Q9NYG5 whole entry, chain 1 of 2): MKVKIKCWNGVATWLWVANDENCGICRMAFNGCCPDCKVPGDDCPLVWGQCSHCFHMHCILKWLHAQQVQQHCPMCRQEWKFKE
Sequence of recombinant human APC/C (Strep-tagged APC4), expressed in SF9 cells (human) (Q9UJX5 whole entry, chain 2 of 2, further chain): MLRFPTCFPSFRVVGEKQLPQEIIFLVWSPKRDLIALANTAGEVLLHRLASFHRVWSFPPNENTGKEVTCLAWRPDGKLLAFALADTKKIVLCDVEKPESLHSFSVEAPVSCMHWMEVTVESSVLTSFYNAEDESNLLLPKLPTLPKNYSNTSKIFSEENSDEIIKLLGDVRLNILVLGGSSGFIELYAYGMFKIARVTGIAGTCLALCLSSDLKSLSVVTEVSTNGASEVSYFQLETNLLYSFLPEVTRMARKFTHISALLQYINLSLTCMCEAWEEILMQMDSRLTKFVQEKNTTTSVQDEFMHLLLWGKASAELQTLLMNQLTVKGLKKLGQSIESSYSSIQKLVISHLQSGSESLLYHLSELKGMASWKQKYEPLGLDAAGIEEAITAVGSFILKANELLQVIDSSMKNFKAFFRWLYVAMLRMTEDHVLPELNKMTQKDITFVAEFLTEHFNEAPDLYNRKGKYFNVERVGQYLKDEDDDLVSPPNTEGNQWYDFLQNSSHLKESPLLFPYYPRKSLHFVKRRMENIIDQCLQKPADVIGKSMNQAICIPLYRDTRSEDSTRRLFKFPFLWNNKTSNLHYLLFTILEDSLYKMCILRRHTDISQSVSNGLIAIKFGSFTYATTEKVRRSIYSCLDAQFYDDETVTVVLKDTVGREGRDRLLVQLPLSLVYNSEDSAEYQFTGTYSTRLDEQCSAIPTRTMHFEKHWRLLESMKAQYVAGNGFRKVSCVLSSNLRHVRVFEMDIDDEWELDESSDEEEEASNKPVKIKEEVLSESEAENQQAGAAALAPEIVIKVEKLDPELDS
Test [2] has the same target. Nature of the test: inhibitory constant calculated with a model for non-competitive inhibition (Prism 6.0) from the in vitro APC/C ubiquitination assay (UBE2C, securin titration, with or without 3 µM G3-6).

B1: G3-6, Ac-cyclo(4,11)-EWWZIKEIQRXRRA-NH2 (peptide)
peptide: Ac-EWW[R8]IKEIQR[S5]RRA-NH2
modifications: staple 4-11
SMILES: CC[C@H](C)[C@@H]1NC(=O)[C@H](CCC(=O)O)NC(=O)[C@H](CCCCN)NC(=O)[C@H]([C@@H](C)CC)NC(=O)[C@](C)(NC(=O)[C@H](Cc2c[nH]c3ccccc23)NC(=O)[C@H](Cc2c[nH]c3ccccc23)NC(=O)[C@H](CCC(=O)O)NC(C)=O)CCCCCCC=CCCC[C@@](C)(C(=O)N[C@@H](CCCNC(=N)N)C(=O)N[C@@H](CCCNC(=N)N)C(=O)N[C@@H](C)C(N)=O)NC(=O)[C@H](CCCNC(=N)N)NC(=O)[C@H](CCC(N)=O)NC1=O
In general, Ki refers to a measure of affinity in units of concentration, obtained from inhibition or displacement. Regarding B1, the IC50, in vitro APC/C ubiquitination assay (UBE2C, securin, methylated ubiquitin, 0.01-100 µM G3-6, 10 min) in test [1] is 1.96 µM. For the same molecule, the Ki in test [2] was 5 µM.
